As a reminder, the IC50 is the concentration at which inhibition is half-maximal.

Data set [1] is described as follows: Photophysical properties and fluorescence quantum yields of DFHBI and RNA-DFHBI complexes. It counts as physicochemical. The note with it: this work. As for the experimental part: The absorbance was measured at 448 nm and the fluorescence emission spectra was measured with 448 nm excitation for three different concentrations of the Acridine Yellow standard. The absolute quantum yield of Acridine Yellow was taken to be 0.47 as reported by Olmsted, Journal of Physical Chemistry 1979, 83, 2581-2584. The refractive index (η) was taken as 1.36 for ethanol and 1.333 for water (E. Hecht, Optics (4th edition), 2001). UV absorbance and fluorescence spectra were recorded on a Shimadzu 2501 Spectrophotometer (Shimadzu) or a Quantamaster Master 4 L-format scanning spectrofluorometer (Photon Technologies International) equipped with an LPS-220B 75-W xenon lamp and power supply, A-1010B lamp housing with integrated igniter, switchable 814 photon counting/analog photomultiplier detection unit, and MD5020 motor driver.
Quantum yields for DFHBI or RNA-DFHBI complex were determined by measuring the apparent quantum yields (Φsample.app) as a function of increasing total RNA (Ctotal RNA) at a fixed concentration of total DFHBI (CDFHBI). […] The RNA was renatured in buffer at 70° C. for 3 min and cooled to ambient temperature for 5 min prior to addition to the reaction solution. The DFHBI concentration was fixed at 10 or 20 μM in different replicates. The apparent quantum yield is described using the following equation: […]
Then, the apparent quantum yield is related to the dissociation constant Kd and concentration of DFHBI by the following equation: […]
Thus, the dissociation constants Kd and the quantum yield (Φsample) of RNA-DFHBI complexes were determined by least squares fitting to the above equation in Graphpad Prism software.

The conditions of data set [2]: literature value (Nawrocki et al.); cited from earlier work.
The target of data set [3] is T1, protein lysine MTase SET7/9 (Homo sapiens, UniProt Q8WTS6).
T1 construct: purchased New England Biolabs Inc (Ipswich, Mass.)
T1 sequence (Q8WTS6 1-366): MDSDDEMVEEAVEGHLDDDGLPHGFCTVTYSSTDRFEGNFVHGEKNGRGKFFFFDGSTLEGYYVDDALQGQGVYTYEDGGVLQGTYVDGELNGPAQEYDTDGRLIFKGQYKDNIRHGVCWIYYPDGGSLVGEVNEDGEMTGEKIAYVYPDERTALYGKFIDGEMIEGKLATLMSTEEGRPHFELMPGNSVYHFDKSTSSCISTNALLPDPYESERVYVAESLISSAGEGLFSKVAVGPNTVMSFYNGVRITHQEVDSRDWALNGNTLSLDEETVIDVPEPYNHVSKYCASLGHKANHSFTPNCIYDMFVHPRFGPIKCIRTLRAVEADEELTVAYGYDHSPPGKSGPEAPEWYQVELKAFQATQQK
Briefly: Protein MTase SET7/9 inhibition assay read out with Aeh1-4 biosensor. It counts as biochemical. As for the experimental part:
To initiate the enzyme reaction, 5 μL of H3 peptide substrate (N′-[…]-LAGGKKC-C′) (SEQ ID NO:132) was added to 5 μL of 2×enzyme reaction solution containing SET7/9, SAM, and NEB HMT buffer. Generally, final concentrations are 50 μM H3 peptide, 0.1 U/μL SET7/9, 25 μM SAM, and lx NEB HMT buffer (50 mM Tris, pH 9.0, 5 mM MgCl2, and 4 mM DTT). The reaction solution was incubated at 37° C. for 2 hours to allow the enzyme reaction to proceed.
For the kinetics assay, the reaction conditions are the same as described above except 0.05 U/μL SET7/9 was used, and the enzyme reaction was heat inactivated at different time points. For the inhibition assay, the reaction conditions are the same as described in kinetics assay except varied concentrations of sinefungin was added to the enzyme reaction solution, the reaction solution was incubated at 37° C. for 6 min (see FIG. 16), then heat inactivated by incubation at 65° C. for 15 min. For the inhibition assay shown in FIG. 17, the reaction conditions are the same as described above except 40 μM H3 peptide, 0.1 U/μL SET7/9, 40 μM SAM were used instead.
To initiate the fluorescent biosensor reaction, 10 μL of the enzyme reaction was added to 90 μL of biosensor reaction solution containing renatured RNA, DFHBI, and buffer. […] In vitro fluorescence assays were conducted as described above.

The subject of data set [4] is E. coli BL21* wild-type and ΔMTAN cells. Briefly: Live cell detection of SAH accumulation, wild-type versus MTAN knockout, flow cytometry. The following applies: E. coli BL21* MTAN knockout strain 2. It counts as cell-based. On the procedure:
A Targetron® Gene Knockout System (Sigma-Aldrich) was used to knock out the MTAN gene from E. coli BL21*, following manufacturer protocols.
Preparation of cell samples for flow cytometry was carried out by inoculating 2 mL of auto-induction media/Carb (F. Studier, Protein Expression and Purification 2005, 41, 207-234) with E. coli BL21* cells from colonies grown on an LB/Carb culture plate, containing pET31b plasmids encoding RNA aptamers. […] Cells were then grown aerobically overnight to saturation (0D600 varied from 5 to 10) and diluted to OD600˜0.01-0.05 in M9 minimal media (pH ˜6.0) with 100 μM DFHBI-1T. Cellular fluorescence was measured for 30,000 cells using a Life Technologies Attune N×T Acoustic Focusing Cytometer.
On the technique in general: In flow cytometry, cells or beads pass a laser one at a time.

The nature of data set [5]: Binding affinity analysis of SAH biosensors. As for the experimental part: The SAH concentration (cSAH) was varied, and the fluorescence of the sample with DFHBI but no RNA was subtracted as background to determine relative fluorescence units. The ratio between the fraction of biosensor that is bound by SAH and the total SAH biosensor concentration is given as:
The dissociation constants Kd were determined by least squares fitting to the following equation in Graphpad Prism software: […]

A short description of data set [6]: In vitro fluorescence assays of SAH biosensors (turn-on, ligand selectivity). It counts as biochemical. The following applies: for fluorescence response to SAH at low magnesium: 3 mM magnesium; for fluorescence in the presence of ATP: 10 mM ATP; for fluorescence turn-on: 37° C., 10 mM Mg^2+. On the procedure: Other conditions, including temperature, concentrations of MgCl2, DFHBI, ligand or RNA, were varied in different experiments and are indicated in the figures. The RNA was renatured in buffer at 70° C. for 3 min and cooled to ambient temperature for 5 min prior to addition to the reaction solution. DFHBI was added to a solution containing buffer and ligand, and then RNA was added at the end before fluorescence measurement. Binding reactions were performed in 100 μL volumes and were incubated at the indicated temperature in a Corning Costar 3915 96-well black plate until equilibrium was reached, which in some cases takes 30 to 60 minutes. The fluorescence emission was measured using a Molecular Devices SpectraMax Paradigm Multi-Mode detection platform plate reader (Sunnyvale, Calif.) with the following instrument parameters: 448 nm excitation, 506 nm emission.

The target of data set [7] is T2, SET7/9 (Homo sapiens, UniProt Q8WTS6).
T2 construct: purchased New England Biolabs Inc (Ipswich, Mass.)
T2 sequence (Q8WTS6 1-366): T1 sequence (Q8WTS6 1-366)
Briefly: High-throughput screening (HTS) assay of SET7/9 activity and inhibition, Z′ score. It counts as biochemical. The note with it: 384-well plate, 16 replicates, 300 μM sinefungin. On the procedure: For HTS experiments, samples were dispensed into a Grenier 781077 384-well flat bottom black plate using an Eppendorf Repeater […] pipetter to dispense reaction components. Z' scores were calculated from 16 well replicates in the 384-well plate. For the HTS SET7/9 activity assay, 3 μL of H3 peptide or water was added to 9 μL of reaction solution containing SET7/9 MTase, SAM, and NEB HMT Reaction Buffer in each well. Final concentrations are: 0.25 U/10 μL SET7/9, 25 μM SAM, 50 μM H3 peptide and 1×NEB HMT Reaction Buffer (50 mM Tris, pH 9.0, 5 mM MgCl2, and 4 mM DTT). After 30 min incubation at 37° C., to initiate the fluorescent biosensor reaction, 18 μL of biosensor reaction solution containing renatured RNA, DFHBI, and buffer was added to each well. […] In vitro fluorescence assays were conducted as described above. For the HTS SET7/9 inhibition assay, 4.5 μL of sinefungin or water was added to 8 μL of reaction solution containing SET7/9 MTase, and NEB HMT Reaction Buffer in each well. After 15 minutes incubation at 37° C., methylation reaction was initiated by adding 2.5 μL solution containing both SAM and H3 peptide. Final concentrations are: 0.25 U/10 μL SET7/9, 25 μM SAM, 50 μM H3 peptide, 300 μM sinefungin and 1×NEB HMT Reaction Buffer (50 mM Tris, pH 9.0, 5 mM MgCl2, and 4 mM DTT). After 30 min incubation at 37° C., to initiate the fluorescent biosensor reaction, 15 μL of biosensor reaction solution containing renatured RNA, DFHBI, and buffer was added to each well. […] In vitro fluorescence assays were conducted as described above.

In data set [8] the test system is E. coli BL21* cells. The data set can be described thus: In vivo fluorescence of RNA aptamers by flow cytometry. The note with it: 100 μM DFHBI. It counts as cell-based. On the procedure:
To compare the fluorescence of Spinach2 and cpSpinach2 in live cells, pET31b plasmids encoding the RNA aptamers in a tRNA scaffold were transformed into E. coli BL21* cells. Following IPTG induction of transcription, cells were incubated with DFHBI and fluorescence was quantitated by flow cytometry. The mean cellular fluorescence was measured as a function of increasing DFHBI concentration in the media, in order to determine the optimal conditions for aptamer fluorescence. Unexpectedly, full saturation of fluorescence was not observed, even when E. coli cells were incubated in media containing up to 800 μM DFHBI (FIG. 5). However, the non-specific fluorescence signal increased when DFHBI concentration exceeded 100 μM. Thus, to balance higher fluorescence activation and lower non-specific background, a concentration of 100 μM was adopted for further experiments. Under these conditions, cellular fluorescence activation for Spinach2 and cpSpinach2 was on average 34 and 22-fold over background, respectively (FIG. 6). Thus, cpSpinach2 is a functional alternative to Spinach2. Although it currently performs slightly poorer in terms of fluorescence activation in live cells, improvements are likely possible through directed mutagenesis for higher thermal stability, improved folding efficiency and less Mg^2+ dependency. […]

The mark [9] stands for this setting: 3 mM magnesium (FIG. 22), read-out: in vitro measured binding affinity for SAH.

Where two headings read alike, the source gives them in different places.

As for `CC1=N/C(=C\c2cc(F)c(O)c(F)c2)C(=O)N1C` [DFHBI, (Z)-4-(3,5-difluoro-4-hydroxybenzylidene)-1,2-dimethyl-1H-imidazol-5(4H)-one], in data set [1], the Emission maximum is listed as 502 ± 1 nm, the “Excitation Maximum” value came to 428 ± 1 nm and the Extinction coefficient came out at 30018 M^−1- cm^−1. Also, the Fluorescence quantum yield in data set [1] (30° C., 10 mM MgCl2) worked out at 0.00072 ± 0.00013. Moreover, in data set [2], the Emission maximum was 489 nm, the “Excitation Maximum” value is 423 nm, the Extinction coefficient was 30100 M^−1- cm^−1 and the Fluorescence quantum yield is recorded as 0.0007.

Consider `Nc1ncnc2c1ncn2[C@@H]1O[C@H](C[C@@H](N)CC[C@H](N)C(=O)O)[C@@H](O)[C@H]1O` [Sinefungin], for which the values for the IC50 in data set [3] (initial SAM concentration 40 μM) and in data set [3] (initial SAM concentration of 25 μM) were 42 ± 16 µM and 26 ± 5 µM, respectively.

B1: Mpe1-5: SAH biosensor, SEQ ID NO: 39 (nucleic acid)
chain: ACTTTCGAGGAGCGTTGCAACTCCCTTGTTGAGTAGAGTGTGAGCTCCGTAACTAGTTACATCGCAAGATGTAACTGAATGAAATGGTGAAGGACGGGTCCAGGGAGCCAGGCTCGAAAGTCATCCCCCGATGCAACGGCGCTCACCCGCA
As to B1, the “fold change in fluorescence between wild-type and MTAN knockout strain 2” value in data set [4] is given as 2.0 ×. Also, the Kd in data set [5] (setting [9]) was determined as 19 nM. Besides, in data set [5] (10 mM Mg^2+, 37° C., read-out: Kd for SAH), the Kd was determined as 75 ± 7 nM. The “fluorescence response to SAM” value in data set [6] (10 μM of SAM) is on record as “slight response to SAM”. In data set [6], the “fluorescence response to SAH at low magnesium” value is “high fluorescence response to SAH”, the “fluorescence in the presence of ATP” value was “lower fluorescence” and the fluorescence turn-on is about 4 fold.

B2: Nmo1-4: SAH biosensor, SEQ ID NO: 65 (Table 2 prints 64) (nucleic acid)
chain: CTCGCCGAGGAGCGCTGCAACAGGTTGTTGAGTAGAGTGTGAGCTCCGTAACTAGTTACATCGCAAGATGTAACTGAATGAAATGGTGAAGGACGGGTCCACCTGCCAGGCTCGGCGATTATCGGGACCTTTAAACCAACGGCGCTCGGTTCAG
For the molecule B2, the “fold change in fluorescence between wild-type and MTAN knockout strain 2” value in data set [4] came to 4.8 ×. Besides, the Kd in data set [5] (setting [9]) was 750 nM. Also, the “Z′ score, inhibitor screen” value in data set [7] is listed as 0.75. In addition, in data set [6], the “fluorescence response to SAH at low magnesium” value was “high fluorescence response to SAH” and the fluorescence turn-on is about 9 fold.

B3: Spinach2: fluorophore-binding RNA aptamer, SEQ ID NO: 92 (nucleic acid)
chain: GATGTAACTGAATGAAATGGTGAAGGACGGGTCCAGTAGGCTGCTTCGGCAGCCTACTTGTTGAGTAGAGTGTGAGCTCCGTAACTAGTTACATC
modifications: expressed or natural sequence
B3: the “cellular fluorescence activation over background” value in data set [8] is 34 fold. In addition, the “fluorescence in the presence of ATP” value in data set [6] was “showed the same effect”.
